Results on 4 molecules are retold here after US20220362330A1, “Compositions and Methods for Increasing Epithelial Barrier Function” (The Board of Trustees of the Leland Stanford Junior …, priority 2019, published 2022).

Series [1] concerns genital mucosal barrier. Description: Murine tissue permeability assay, low molecular weight fluorescent molecules given intravaginally. In kind it is in vivo, mice. The procedure: Effects of progestins on genital mucosal barrier permeability were evaluated by intravaginally (ivag) administering 457 Da and 70 KDa-sized fluorescent molecules to mice in estrus or diestrus-stage or after DMPA or LNG treatment. Mice were grouped as follows: untreated in estrus, untreated in diestrus, DMPA treated, or LNG treated. The mice were intravaginally administered a PBS solution containing Lucifer yellow (457 Da) and Texas-Red-conjugated dextran (70 KDa). Animals were euthanized 45 minutes later to assess vaginal tissue penetration of these molecules by confocal microscopy. […] Mucosal permeability was increased moderately by diestrus, but dramatically by DMPA or LNG. Conversely, permeability increases were negligible in estrus-stage mice and mice treated with MePRDL or DMPA and RU486. This indicates exogenous progestins increase genital mucosal permeability.
To evaluate mucosal permeability to low molecular weight molecules, indicated groups of mice were sedated, and 10 μL of a PBS solution containing 62.5 μg of dextran Texas-Red® (DR) (MW=70,000 Da) and 50 μg of Lucifer yellow CH, lithium salt (LY) (MW=457.2 Da) (both from Life Technologies) administered intravaginally. 45 minutes later, mice were euthanized, and excised vaginal tissue fixed in formaldehyde. Fixed tissue was embedded in agarose, and 200-300 μm specimens were sectioned with a vibratome. After counterstaining with 4,6-diamidino-2-phenylindole (DAPI), confocal microscopy images were acquired by sequential scanning to prevent fluorescence crossover.

For a further series, the system named is desmoglein-1a (DSG1a). The series can be described thus: qRT-PCR of Dsg1a gene expression in vaginal tissue. The series is classed as in vivo, mice. As to conditions: for relative expression of Dsg1a: DMPA-treated mice, His-tagged ephrins 1.5 ug/30 uL ivag; for relative expression of Dsg1a / Dsg1a gene expression in vaginal tissue: 24 h; for Dsg1a gene expression in vaginal tissue: OVX mice, single ivag dose. The procedure:
(§1) To define progestin-mediated changes in mucosal permeability, vaginal tissue from mice in estrus, diestrus, or after DMPA or LNG treatment was used to measure expression of the desmosomal cadherins desmoglein-1a (DSG1a) and desmocollin-1 (DSC1).
(§2) Human ectocervical and murine vaginal tissues were immediately immersed in 1 mL of RNAlater® (Qiagen), stored for 24 h at 4° C., and stored long-term at −80° C. RNA isolated using the RNeasy Lipid Tissue Kit (Qiagen) using manufacturer's instructions was re-suspended in nuclease-free water and quantified using a NanoDrop spectrophotometer (Thermo Scientific). The following mouse primers were utilized: desmocollin 1 (Mm00496525_ml), desmoglein-1α (Mm00809994_s1), ephrinA3 (Mm01212723_g1) and pyruvate carboxylase (Mm00500992_ml) as housekeeping reference gene (all from Thermo Scientific). These human primers were used: desmoglein-1 (Hs00355084_m1) and glucose-6-phosphate isomerase (Hs00976711_m1) as a housekeeping reference gene. To define relative gene expression, 100 ng of RNA was mixed with TaqMan® RNA-to-Ct™ 1-Step Kit and adequate primer (final volume of 10 μL/well) using manufacturer's instructions (Life Technologies). qRT-PCR was performed using a Quantstudio3 Thermal Cycler, and data analyzed via Quanstudio Software (Applied Biosystems).

In the next series the test system is desmocollin-1 (DSC1). The series can be described thus: qRT-PCR of Dsc1 gene expression in vaginal tissue. In kind it is in vivo, mice. The procedure:
as §1, §2

The subject of another series is DSG1 protein. Description: DSG1 protein levels in vaginal tissue, immunofluorescent staining and confocal microscopy. In kind it is in vivo, mice. The note with it: for levels of DSG1 protein in vaginal tissue: His-tagged ephrins 1.5 ug/30 uL ivag; for levels of DSG1 protein in vaginal tissue / DSG1 protein levels in vaginal tissue: 24 h; for DSG1 protein levels in vaginal tissue: OVX mice, single ivag dose. The method, then: Excised mouse vaginas were formaldehyde fixed and paraffin embedded (FFPE), and 10 μm sections mounted on glass slides and de-paraffinized by sequential immersion in 100% xylene, 100% ethanol, 96% ethanol, and sterile DEPC-treated water. Antigen retrieval was performed using 10 mM sodium citrate buffer (pH 6.0) containing 0.05% Tween 20 (both Sigma-Aldrich) (20 minutes at 95° C.). After 3 PBS washes, sections were incubated overnight in 10% normal goat serum (Abcam, Cambridge Mass.) at 4° C., then incubated for 1 h at ambient temperate with rabbit anti-desmoglein-1 (clone EPR6766(B)) antibody, washed and incubated for 1 h with AlexaFluor® 488-labeled goat anti-rabbit IgG (antibodies from Abcam) (all antibodies were diluted in PBS with 1% BSA and 0.05% Tween 20). Sections were stained with DAPI and evaluated for levels of DSG1 protein (defined by calculating pixel numbers per 100 μm^2) using confocal microscopy and ImageJ software.

Series [2] relates to claudin-1, occludin, and tight junction protein 1. Description: Gene expression of other cell-cell adhesion molecules in vaginal tissue. In kind it is in vivo, mice.
The subject of a further series is HSV-2. Description: Lethal genital HSV-2 infection. In kind it is in vivo. As to conditions: DMPA-treated mice. The method, then:
Mice were sedated with xylazine (Lloyd Laboratories, Shenandoah Iowa) and ketamine hydrochloride (JHP Pharmaceuticals, LLC Rochester Mich.), and intravaginally infected with 10^4 plaque-forming units (pfu) of WT HSV-2 333 in 10 μL of RPMI. Mouse mortality was evaluated daily for 15 days.

Another series relates to HSV-1. The series can be described thus: Genital HSV-1 GFP infection, virus replication in vaginal epithelium. The series is classed as in vivo, mice. As to conditions: DMPA-treated mice. The method, then:
Estrus-stage or DMPA-treated mice were intravaginally administered vehicle or recombinant mouse Fc-EFNA3 at 1.5 ug/30 uL 24 h prior to genital infection with 3×10^3 PFU HSV-1q GFP (fluorescent virus). Vaginal tissue was recovered 24 h after infection and evaluated for HSV-1 replication in the vaginal epithelium using confocal microscopy. […] To evaluate if treatment with rm-EphrinA3 protects mice from lethal HSV-2 infection, DMPA-treated mice were intravaginally administered Fc- or His-tagged versions of the rm-protein prior to infection. […] Because the microarray data indicated EphrinA1, EphrinA2, EphrinA3, EphrinA4, and EphrinA5 were upstream regulators of Dsg1 and Dsc1 expression in the mouse vagina, we hypothesized that capacity of EphrinA3 to increase cell-cell adhesion molecule expression may be shared by other members of the EphrinA family.

Series [3] deals with genital mucosal barrier. The series can be described thus: Murine tissue permeability assay, low molecular weight fluorescent molecules given intravaginally. As to conditions: OVX mice, single dose, vs untreated OVX mice. In kind it is in vivo, mice.
The mark [4] stands for this setting: progestin-treated mice vs mice in estrus.

As to `C#C[C@]1(O)CC[C@H]2[C@@H]3CCC4=CC(=O)CC[C@@H]4[C@H]3CC[C@@]21CC` [LNG, reference compound], the “penetration of the 457 Da molecules into vaginal tissue” value in the series with genital mucosal barrier [1] (confocal images, 45 minutes after ivag administration) is given as “greatest penetration”. The Mucosal permeability increase result in the series with genital mucosal barrier [1] (mice, ivag Lucifer yellow (457 Da) and Texas-Red dextran (70 KDa), 45 minutes, confocal microscopy) is “dramatically”. For the same molecule, the “DSG1a gene expression in vaginal tissue” value in the series with desmoglein-1a (DSG1a) (setting [4]) is on record as “decrease gene expression levels”. The “DSC1 gene expression in vaginal tissue” value in the series on desmocollin-1 (DSC1) (setting [4]) is on record as “decrease gene expression levels”. Also, the “DSG1a protein expression in vaginal tissue” value with DSG1 protein (setting [4]) was “significantly reduced”. Moreover, the “gene expression of claudin-1, occludin, and tight junction protein 1” value in series [2] was “did not alter”.

B1: EphrinA3: mouse recombinant EphrinA3; Fc- or His-tagged version not always specified at the place (protein, UniProt O08545 23-206, looked up)
Ephrin-A3: QGPGGALGNRHAVYWNSSNQHLRREGYTVQVNVNDYLDIYCPHYNSSGPGGGAEQYVLYMVNLSGYRTCNASQGSKRWECNRQHASHSPIKFSEKFQRYSAFSLGYEFHAGQEYYYISTPTHNLHWKCLRMKVFVCCASTSHSGEKPVPTLPQFTMGPNVKINVLEDFEGENPQVPKLEKSISG
As for B1, in the series on genital mucosal barrier [1] (DMPA-treated mice, one ivag dose of 1.5 ug/30 uL), the “genital mucosal barrier function / permeability to LMW fluorescent molecules” value was “enhanced genital mucosal barrier function”. Besides, the “relative expression of Dsg1a” value with desmoglein-1a (DSG1a) is on record as “increased relative expression”. The “Dsg1a gene expression in vaginal tissue” value in the series on desmoglein-1a (DSG1a) was “greatly improved”; in the series on desmoglein-1a (DSG1a) (listed as EFNA3), “increases”. For the same molecule, the “Dsc1 gene expression in vaginal tissue” value in the series on desmocollin-1 (DSC1) (OVX mice, single ivag dose, 24 h) was “increases”. The “levels of DSG1 protein in vaginal tissue” value is on record as “similarly increase” in the series on DSG1 protein (DMPA-treated mice) and “increased levels of DSG1 protein” with DSG1 protein (DMPA-treated mice, listed as EFNA3). For the same molecule, the entries for the “DSG1 protein levels in vaginal tissue” value in the series on DSG1 protein and in the series on DSG1 protein (listed as EFNA3) were “greatly improved” and “increases”, respectively. The reduction of mortality entry in the series on HSV-2 (one ivag dose (Fc- or His-tagged) prior to lethal HSV-2 infection, compared to DMPA alone) was “approximately 25%”. Besides, the “HSV-1 replication in mouse genital tissue” value in the series on HSV-1 was “reduced”. The “genital mucosal barrier function (penetration of lucifer yellow, 457 Da)” value in the series with genital mucosal barrier [3] is on record as “improved function of the genital mucosal barrier”; in the series on genital mucosal barrier [3] (listed as EFNA3), “enhanced genital mucosal barrier function”.

B2: His-EFNA3: Ephrin A3 Protein, Mouse, Recombinant (His Tag), SEQ ID NO: 15 (protein, UniProt P52797 23-214, looked up)
Ephrin-A3: QGPGGALGNRHAVYWNSSNQHLRREGYTVQVNVNDYLDIYCPHYNSSGVGPGAGPGPGGGAEQYVLYMVSRNGYRTCNASQGFKRWECNRPHAPHSPIKFSEKFQRYSAFSLGYEFHAGHEYYYISTPTHNLHWKCLRMKVFVCCASTSHSGEKPVPTLPQFTMGPNVKINVLEDFEGENPQVPKLEKSISG
modifications: His tag
On to B2, for which, in the series with DSG1 protein (DMPA-treated mice, ivag in 10 μL of PBS, 24 hours), the “levels of DSG1 protein in genital tissue” value is reported as “increased levels of DSG1 protein”. Moreover, the “survival after genital HSV-2 infection” value in the series on HSV-2 (10^4 pfu of HSV-2) was “improves the survival”.

B3: EphrinA2: Ephrin A2/EFNA2 Protein, Mouse, Recombinant (His Tag), SEQ ID NO: 17 (protein)
chain: MAPAQRPLLPLLLLLLPLRARNEDPARANADRYAVYWNRSNPRFQVSAVGDGGGYTVEVSINDYLDIYCPHYGAPLPPAERMERYILYMVNGEGHASCDHRQRGFKRWECNRPAAPGGPLKFSEKFQLFTPFSLGFEFRPGHEYYYISATPPNLVDRPCLRLKVYVRPTNETLYEAPEPIFTSNHHHHHH
modifications: His tag
B3: the “relative expression of Dsg1a” value with desmoglein-1a (DSG1a) is given as “increased relative expression”. Besides, the “levels of DSG1 protein in vaginal tissue” value was “similarly increase” in the series with DSG1 protein (DMPA-treated mice) and “increased levels of DSG1 protein” in the series with DSG1 protein (DMPA-treated mice, listed as EFNA2).
